In publication doi:10.1101/127183:
Blank lines part the entries; values can stand above or below the substance they belong to.

Legend:
[1] = target: Apoprotein of COCP (Apo-COCP) (Synechocystis); assay: SEC
[2] = target: C-terminal OCP-related Carotenoid-binding Protein (COCP), carotenoid-bound holoform (Synechocystis); assay: SEC
[3] = target: Synechocystis OCP^WT apoprotein (Apo-OCP) (Synechocystis) (UniProt P74102); assay: cross-linking
[4] = target: C-terminal OCP-related Carotenoid-binding Protein (COCP), carotenoid-bound holoform (Synechocystis); assay: cross-linking
[5] = target: COCP with an Ala substitution of Trp-288 (COCP-W288A), carotenoid-bound holoform (Synechocystis); assay: SEC
[6] = target: Synechocystis OCP^WT apoprotein (Apo-OCP) (Synechocystis) (UniProt P74102); assay: SEC
[7] = target: Synechocystis OCP^WT apoprotein (Apo-OCP) (Synechocystis) (UniProt P74102); assay: SEC; remark: listed apart in the source
[8] = target: Synechocystis OCP^WT apoprotein (Apo-OCP) (Synechocystis) (UniProt P74102); assay: SEC-SAXS with right angle light scattering

Sequence of UniProt P74102 (P74102 whole entry): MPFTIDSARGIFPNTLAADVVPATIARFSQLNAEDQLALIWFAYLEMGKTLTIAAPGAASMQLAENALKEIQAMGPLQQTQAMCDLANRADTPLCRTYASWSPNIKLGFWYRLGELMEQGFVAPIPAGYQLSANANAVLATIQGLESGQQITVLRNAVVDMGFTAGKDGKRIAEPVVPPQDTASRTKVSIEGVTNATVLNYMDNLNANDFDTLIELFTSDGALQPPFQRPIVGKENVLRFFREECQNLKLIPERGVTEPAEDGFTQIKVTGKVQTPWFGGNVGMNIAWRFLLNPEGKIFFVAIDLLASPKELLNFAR

Substance: Apoprotein of COCP (Apo-COCP) (domain or fragment)
stoichiometry N [1]: 2

Substance: C-terminal OCP-related Carotenoid-binding Protein (COCP), carotenoid-bound holoform (domain or fragment)
stoichiometry N [2]: 2 | stoichiometry N (COCP subunit per Apo-OCP subunit) [3]: 1 | stoichiometry N [4]: 2

Substance: COCP with an Ala substitution of Trp-288 (COCP-W288A), carotenoid-bound holoform (domain or fragment)
stoichiometry N [5]: 2

stoichiometry N [6]: 2 | stoichiometry N [7]: 2 | stoichiometry N [8]: 2
Substance: Synechocystis OCP^WT apoprotein (Apo-OCP) (from UniProt P74102 1-317) (natural protein)
